Reference: patent US20250206843A1 (NATIONAL INSTITUTE FOR BIOTECHNOLOGY IN THE NEGEV, published 2025)

Columns and labels:
[1] = molecular target: T1, HER2 and HER3 co-expressed on cells (HER2/3) (human, UniProt P04626 23-1255; P21860 20-1342); experiment: flow cytometry on cells co-expressing HER2 and HER3
T1 construct: whole, on cells; Dubca camel fibroblasts in the periplasmic ELISA screen; also called HER2/HER3

[2] = molecular target: T2, human epidermal growth factor receptor 2 (HER2), on cells (human, UniProt P04626 23-1255); experiment: flow cytometry on cells expressing HER2
T2 construct: whole, on cells; Target of the flow cytometry and imaging experiments (HEK 293 cells expressing HER2; SkBr3 cells); also called ErbB2; HER2 receptor

human HER3, on cells [3] = molecular target: T3, human HER3, on cells (human, UniProt P21860 20-1342); experiment: flow cytometry on cells expressing HER3
T3 construct: whole, on cells; also called ErbB3
T3 sequence (P21860 20-1342): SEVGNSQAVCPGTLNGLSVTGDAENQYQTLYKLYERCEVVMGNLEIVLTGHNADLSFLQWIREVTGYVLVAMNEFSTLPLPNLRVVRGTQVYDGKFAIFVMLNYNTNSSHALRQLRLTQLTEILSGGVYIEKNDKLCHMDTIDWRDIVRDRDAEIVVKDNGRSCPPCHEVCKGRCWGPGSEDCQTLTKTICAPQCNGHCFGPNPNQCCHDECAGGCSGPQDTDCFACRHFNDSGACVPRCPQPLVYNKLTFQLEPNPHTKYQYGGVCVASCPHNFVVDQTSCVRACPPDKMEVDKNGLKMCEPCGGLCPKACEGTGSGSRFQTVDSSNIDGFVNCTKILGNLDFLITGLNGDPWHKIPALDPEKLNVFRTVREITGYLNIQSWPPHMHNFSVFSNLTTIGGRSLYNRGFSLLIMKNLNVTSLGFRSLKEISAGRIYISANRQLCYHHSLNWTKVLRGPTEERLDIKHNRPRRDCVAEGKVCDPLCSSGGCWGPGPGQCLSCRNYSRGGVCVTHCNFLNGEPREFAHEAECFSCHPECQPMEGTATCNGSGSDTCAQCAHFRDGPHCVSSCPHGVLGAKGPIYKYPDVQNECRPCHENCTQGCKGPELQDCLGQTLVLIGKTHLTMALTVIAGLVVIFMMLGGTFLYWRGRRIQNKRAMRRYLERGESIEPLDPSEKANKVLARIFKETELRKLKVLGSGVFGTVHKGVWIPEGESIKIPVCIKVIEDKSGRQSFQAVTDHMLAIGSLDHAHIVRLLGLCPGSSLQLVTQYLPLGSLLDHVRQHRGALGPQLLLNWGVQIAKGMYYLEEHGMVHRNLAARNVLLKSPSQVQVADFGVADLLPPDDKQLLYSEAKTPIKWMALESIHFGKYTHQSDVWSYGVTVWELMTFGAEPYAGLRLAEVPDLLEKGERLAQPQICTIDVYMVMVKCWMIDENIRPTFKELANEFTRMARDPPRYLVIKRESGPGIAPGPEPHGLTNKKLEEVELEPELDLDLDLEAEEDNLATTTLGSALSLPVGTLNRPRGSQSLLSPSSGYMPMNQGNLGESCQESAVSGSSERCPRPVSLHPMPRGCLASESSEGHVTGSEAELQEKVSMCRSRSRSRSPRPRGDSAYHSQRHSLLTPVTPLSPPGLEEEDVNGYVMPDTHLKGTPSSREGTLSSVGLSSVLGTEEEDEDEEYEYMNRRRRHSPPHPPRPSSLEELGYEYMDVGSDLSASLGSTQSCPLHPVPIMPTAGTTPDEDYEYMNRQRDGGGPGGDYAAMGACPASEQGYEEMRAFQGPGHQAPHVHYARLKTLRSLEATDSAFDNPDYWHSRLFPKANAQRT

[4] = molecular target: T4, human HER2-His extracellular-domain protein (human, UniProt P04626 23-652); experiment: SPR, Biacore T200; HER2-His ECD immobilized, Nb46 as analyte; HER2 immobilized, Nb46 as analyte
T4 construct: extracellular domain; Bought protein; also called recombinant HER2; not shown: His tag
Procedure: (§1) SPR binding assay—The affinity of Nbs to HER2 or HER3 was determined in two ways by using surface plasmon resonance (SPR) spectroscopy. SPR measurements were performed on a Biacore T200 instrument. In one layout, purified Nb38 (10 μg/ml) and Nb46 (20 μg/ml) were immobilized on a CM5 chip using an amine coupling kit (GE Healthcare, Chicago, IL). The analytes, human HER2-His or HER3-His extracellular-domain proteins (R&D systems, Minneapolis, MN) dissolved in PBST (PBS supplemented with 0.05% Tween-20 v/v), were flown at 30 μl/min, and the chip was regenerated using 2 mM NaOH. In a second layout, the purified human HER2-His or HER3-His extracellular-domain proteins, at 10 μg/ml, were immobilized on a CM5 chip). The analytes, NB46 and NB38 (and NB7 as a negative control), were flown at 30 μl/min in PBST, and the chip was regenerated using 20 mM glycine. Binding was allowed for 180 s and dissociation for 600 s. Curves were fitted using Biacore's evaluation software using a 1:1 ligand:analyte binding model to retrieve association rate constants (ka), dissociation rate constants (kd), and equilibrium dissociation constants (KD, a measurement of affinity).

[5] = molecular target: T2, human epidermal growth factor receptor …; experiment: flow cytometry on SkBr3 cells in the presence of Neuregulin-1 (NRG; the legend prints 1.8 mM), anti-VHH-488 detection, n=3
Procedure: (§2) FIGS. 6A-6D. Nb46 binding to HER2 cell-receptors by FACS analysis. […] The fluorescent signal was subtracted from that of cells incubated with the antibody alone and normalized relative to the highest signal (FIG. 6B), n=3. FIG. 6C—Affinity binding of NB46 with SkBr3 cells conducted with and without 1.8 mM Neuregulin-1 (NRG) following 1 hour incubation. Data was fitted with a sigmoidal curve in Excel (dashed lines), n=3.
(§3) Nb46 binding of HER2+ cancer cells—SkBr3 cells were grown to 70-90% confluency in T-75 flasks overnight. The cells were detached by aspirating the medium and washing cells with 10 mL hot PBS before pipetting 5 mL of non-enzymatic cell dissociation solution (Biological Industries, Beit Haemek, Israel) and incubating for 5 minutes at 37° C. […] The cells were Incubated for 1 h at 4° C. on a tubes rotator after which the cells were washed off of unbound Nb; cells were centrifuged at 350 g for 5 minutes, supernatant discarded, and cells resuspend in 900 μL of PBS-FBS, repeatedly for 3 times. After the 3rd centrifugation, the cells were resuspended in 300 μL PBS-FBS containing iFluor488-conjugated anti-camelid VHH (1:1000, Genescript, NJ, USA), and incubated for additional 1 h at 4° C. on a tubes rotator, in the dark. […]

[6] = molecular target: T5, human HER3-His extracellular-domain protein (human, UniProt P21860 20-643); experiment: SPR, Biacore T200, both orientations
T5 construct: extracellular domain; Bought protein; not shown: His tag
T5 sequence (P21860 20-643): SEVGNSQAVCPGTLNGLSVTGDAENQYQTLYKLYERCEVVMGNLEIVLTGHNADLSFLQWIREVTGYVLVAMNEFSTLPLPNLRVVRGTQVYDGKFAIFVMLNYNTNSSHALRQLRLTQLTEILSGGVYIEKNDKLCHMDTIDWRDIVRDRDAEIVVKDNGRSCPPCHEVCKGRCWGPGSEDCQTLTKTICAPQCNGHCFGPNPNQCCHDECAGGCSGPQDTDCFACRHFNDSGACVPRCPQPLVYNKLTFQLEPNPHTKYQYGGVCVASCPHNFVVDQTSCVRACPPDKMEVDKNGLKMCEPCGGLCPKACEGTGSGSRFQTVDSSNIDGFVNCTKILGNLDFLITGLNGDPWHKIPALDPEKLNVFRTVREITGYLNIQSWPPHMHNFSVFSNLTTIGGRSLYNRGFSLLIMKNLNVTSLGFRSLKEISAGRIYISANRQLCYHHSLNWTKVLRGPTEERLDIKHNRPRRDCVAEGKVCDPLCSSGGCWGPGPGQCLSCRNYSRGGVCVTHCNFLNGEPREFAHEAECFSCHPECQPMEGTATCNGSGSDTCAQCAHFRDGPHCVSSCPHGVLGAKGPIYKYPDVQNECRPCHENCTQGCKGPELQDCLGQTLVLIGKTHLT
Procedure: as §1

[7] = molecular target: T2, human epidermal growth factor receptor …; experiment: flow cytometry on SkBr3 cells without Neuregulin-1, anti-VHH-488 detection, n=3
Procedure: as §2, §3

[8] = molecular target: T1, HER2 and HER3 co-expressed on cells …; experiment: flow cytometry on HEK 293 cells expressing HER2 and HER3, anti-VHH-488 detection, signal normalised to the highest signal, n=3
Procedure: as §2

[9] = molecular target: T2, human epidermal growth factor receptor …; experiment: flow cytometry on HEK 293 cells expressing HER2, anti-VHH-488 detection, signal normalised to the highest signal, n=3
Procedure: as §2

human HER3, on cells [10] = molecular target: T3, human HER3, on cells; experiment: flow cytometry on HEK 293 cells expressing HER3, anti-VHH-488 detection, n=3
[11] = molecular target: T4, human HER2-His extracellular-domain …; experiment: SPR, Biacore T200; Nb46 immobilized (ligand), HER2 as analyte
Procedure: as §1

[12] = molecular target: T4, human HER2-His extracellular-domain …; experiment: SPR, Biacore T200; average of the two orientations; average of the two orientations
Procedure: as §1

[13] = molecular target: T1, HER2 and HER3 co-expressed on cells …; experiment: flow cytometry on HEK 293 cells expressing HER2 and HER3, anti-VHH-488 detection, n=3
Procedure: as §2

[14] = molecular target: T4, human HER2-His extracellular-domain …; experiment: SPR, Biacore T200; Nb46 immobilized, HER2-His ECD as analyte; Nb46 immobilized, HER2 as analyte
Procedure: as §1

[15] = molecular target: T2, human epidermal growth factor receptor …; experiment: flow cytometry titration on SkBr3 HER2+ breast cancer cells
Procedure: as §2, §3

[16] = molecular target: T4, human HER2-His extracellular-domain …; experiment: SPR, Biacore T200; HER2 immobilized (ligand), Nb46 as analyte
Procedure: as §1

[17] = molecular target: T4, human HER2-His extracellular-domain …; experiment: SPR, Biacore T200; average of the two orientations
Procedure: as §1

[18] = molecular target: T2, human epidermal growth factor receptor …; experiment: flow cytometry on HEK 293 cells expressing HER2, anti-VHH-488 detection, n=3
Procedure: as §2

[19] = molecular target: T2, human epidermal growth factor receptor …; experiment: flow cytometry on SkBr3 cells, Nb46-AF647 detected with secondary anti-VHH-488 antibody
Procedure: as §2, §3

B1: Nb38 (VHH)
VHH: QVQLQESGGGSVQAGGSLKLSCVASGFTRSMGWARQAPGKEREGVVCINNYNIGSGKWYADSVKGRFTISRDNDKNTVSLQMNSLKPEDTAIYYCAASPLYLCDNSSWFAAGFAAGSHVWGQGTQVTVSS
notes: Camel VHH expressed from pMECS (C-terminal HA and 6xHis tags) and purified on Ni-NTA; also called N38
[1]
  binding result: no binding
[2]
  binding result: no binding
Human HER3, on cells [3]
  binding result: no binding

B2: Nb46 (VHH)
VHH: QVQLQESGGGSVQAGGSLRLSCVVSGYFYYDHYYVAWFRQAPGKEREGVALINGRDSDTYYADSVKGRFTISQDSAKNTVYLQMNSLKPEDTAIYYCAANPGEAFTVLPPRVFRNWGQGTQVTVSS
notes: also called N46
[4]
  Kd: 240 pM
[5]
  EC50 (read off the curve): ~800 pM
[6]
  binding result: no binding
[7]
  EC50 (read off the curve): ~900 pM
[8]
  EC50 (read off the curve): ~800 pM
[9]
  EC50 (read off the curve): ~800 pM
Human HER3, on cells [10]
  binding result: no binding (tested: 25 nM)
[11]
  koff: 0.00221 s⁻¹
  kon: 1.26e+07 M⁻¹ s⁻¹
[12]
  Kd: 210 pM
[13]
  EC50 (read off the curve): ~900 pM
[14]
  Kd: 170 pM
[15]
  Kd: 800 pM
[16]
  koff: 0.00154 s⁻¹
  kon: 6.26e+06 M⁻¹ s⁻¹
[17]
  koff: 0.00187 s⁻¹
  kon: 9.42e+06 M⁻¹ s⁻¹
[18]
  EC50 (read off the curve): ~800 pM

B3: Nb46-AF647 (VHH)
VHH: B2 VHH
modifications: Alexa Fluor 647 (NHS ester), approximately 1 mole dye/mole NB; labelled residue not stated
notes: also called N46-Af647
[19]
  binding result: binds
